For experiment [1], the system named is C3H10T½-BMP2 cells. The experiment can be described thus: FACS for apoptosis and cell cycle progression. The format is cell-based, murine. The note with it: CDDP 25 μM, TAK1 variants stably co-expressed; for apoptosis (subG0-G1 peak): etoposide 10 μM. The protocol: Exponentially growing cells were harvested 48 hours post-seeding or at different stages at and after confluence by trypsinization and fixation with 80% methanol. Cellular DNA content was determined by staining cells with RNAseS/propidium iodide, and measuring fluorescence in a Becton Dickinson FACScan. For each cell population, 10,000 cells were analyzed, and the proportions in G0/G1, G2/M and S-phases were estimated by using Modfit cell cycle analysis software. Information on cell size (e.g. due to differentiation) and complexity could be obtained from forward and side scatter data following evaluation of relevant cell populations.
To determine whether TAK1-mediated effects in the assay systems above resulted from apoptosis, C3H10T½-BMP2 cells co-expressing TAK1 variants were assayed by FACS for apoptosis and cell cycle progression.

Another experiment concerns SMAD proteins. The experiment can be described thus: Co-immunoprecipitation of TAK1 variants with SMADs from HEK293T cells. The format is binding. The note with it: SMAD7, R-SMADs 1-3, 5, SMAD4. The protocol:
(§1) Co-immunoprecipitation were conducted as described (Verschueren K et al, J. Biol. Chem, 274: 20489-20498, 1999). Human embryonic kidney (HEK) 293T cells were plated at 3×10^6 cells/petri dish (55 square centimeters (cm^2)) one day prior to transfection. For transient transfections, 1 μg of Flag-tagged expression plasmid and 2 μg of Myc- or HA-tagged expression plasmids were utilized. DNA content was normalized with empty vector. Transfections were performed with FuGENE6 (Roche, Mannheim). Roughly 36 hours post-transfection cells were dislodged from dishes and harvested by centrifugation. Pellets were shock frozen in liquid nitrogen. […] reactions were performed in lysis buffer. Cell extracts and immunoprecipitates were analyzed by SDS-PAGE and Western blot analysis using the appropriate antibodies.
Toward this end, co-immunoprecipitation with various combinations of wild-type TAK1 (TAK1wt) and R-SMADs, either in a latent form or post-activation by constitutively active BMP type I receptor (ALK6ca, BMPR-IB) or activin type I receptor ALK4ca (ActR-IB), I-SMADs and SMAD4, were conducted. […] TAK1 interaction with R-SMADs was typically stronger in the absence of constitutively active receptors (the exception being SMAD3), which may reflect a reduced affinity for activated, i.e. phosphorylated R-SMADs by TAK1, except with SMAD3.
SMAD proteins only bind TAK1 with an intact or a constitutively active kinase domain. Different TAK1 variants such as TAK1wt, TAK1ca, TAK1dn and two deletions, TAKDN (lacking amino acids 1-300; FIG. 1a) and TAKDC (lacking 301-606; FIG. 1a), respectively, were tested for their ability to bind to R-SMADs (using SMAD1 as a representative) or I-SMAD6 and I-SMAD7.

The test system of experiment [2] is SMAD1-mediated transcription. The experiment is described as follows: SMAD1-SBE CAT reporter assay. The format is cell-based, human. The note with it: dose-dependent, following activation by constitutively active receptors. On the procedure: Reporter assays using the GALA DNA binding domain fused to various forms of SMAD proteins were performed as described (Meersseman, G at al, Mech. Dev, 61: 127-140, 1997). Briefly, 420 nanograms (ng) DNA was transfected/well (24 well-plate seeded with 1×10^5 HEK 293T cells) one day prior to transfection. The DNA mix included a plasmid expressing β-galactosidase under the control of the RSV promoter, for normalization purposes and a reporter plasmid encoding firefly luciferase under the control of 5 GAL4 binding sites upstream of a minimal TATA box (pG5 luc, Promega, Mannheim) and combinations of effector plasmids. The DNA content was normalized with empty vector.
Cells were harvested and lysed. β-Galactosidase (β-gal) activity was measured via the luminescent β-galactosidase kit II (Clontech, Palo Alto, Calif.), and luciferase activity via the luciferase assay system (Promega, Mannheim). All results are expressed as luciferase activity normalized with β-gal values (“relative luciferase activities”). Reporter assays with the SMAD1 DNA binding element SBE-9 (GCCG×9) (Kusanagi K et al, Mol Biol Cell 11: 555-565, 2000) cloned into pCAT5 vector (Boshart M et al, Gene 110: 129-130, 1992) were performed similarly except that cells were lysed in CAT lysis buffer. CAT enzyme was measured via CAT ELISA assay and β-gal via chemiluminescent β-gal reporter gene assay (Roche, Mannheim). […]

The next experiment deals with T1, SMAD1:SMAD4 interaction (Homo sapiens, UniProt Q13485+Q15797).
T1 construct: expressed in transfected cells; host or cells: HEK293T
The experiment is described as follows: Co-immunoprecipitation of SMAD1:SMAD4 hetero-oligomerization in HEK293T cells. The experiment is classed as cell-based. As to conditions: receptor-mediated hetero-oligomerization. The protocol: as §1
R-SMAD hetero-oligomerization with SMAD4 and subsequent accumulation in the nucleus is essential for biological activity.

Experiment [3] has as its system C3H10T½-BMP2 cells. The experiment can be described thus: Semi-quantitative RT-PCR of osteo-/chondrogenic marker genes and Alcian Blue staining. The format is cell-based, murine. The note with it: co-expression in C3H10T½-BMP2 cells. The protocol:
(§2) Proteoglycan-secreting chondrocytes were identified by staining with Alcian Blue at pH 2.5 (Alcian Blue 8GS, Roth, Karlsruhe).
Total cellular RNA was prepared by TriReagent LS according to the manufacturer's protocol (Molecular Research Center Inc., Ohio, Miss.). Five μg of total RNA was reverse transcribed with oligo-dT primers and cDNA aliquots were subjected to PCR. RT-PCR was normalized by the transcriptional levels of HPRT. The primer pairs and PCR conditions used to evaluate osteo-/chondrogenic differentiation, for collagen Ia1, collagen IIa1, osteocalcin, and the PTH/PTHrP-receptor have been described (Hoffmann A et al, J. Cell Sci 115: 769-781, 2002).

Experiment [4] relates to p38 MAPK and JNK phosphorylation. The experiment is described as follows: p38 MAPK and JNK phosphorylation in transfected cells. The experiment is classed as cell-based. The note with it: data not shown. The text has this: Among nine tissues examined, both TAK1 long and short forms were expressed in every tissue assessed apart from kidney (FIG. 1B). TAK1 tissue-specific expression levels varied, with minimal lung expression detected. Both TAK1 splice variants were comparably expressed in the mesenchymal progenitor line, C3H10T½ (see FIG. 8A). TAK1 mutants generated from the long transcript form included dominant-negative (TAK1dn) and constitutively active (TAK1ca) variants as compared to wild-type control (TAK1wt).

Experiment [5] has as its system C3H10T½-BMP2 cells. The experiment is described as follows: Histological analysis and alkaline phosphatase staining of C3H10T½-BMP2 cells. The experiment is classed as cell-based, murine. On the procedure:
Murine C3H10T½ progenitor cells were cultured in high-glucose DMEM containing 10% fetal calf serum, as described (Ahrens Met al, DNA Cell Biol, 12: 871-880, 1993). Cells were stably transfected with expression plasmids encoding wt TAK1, dominant-negative (dn) or constitutively active (ca) TAK1 in pMT7T3-f1 using DOSPER™ according to the manufacturer's protocol (Roche, Mannheim) and a selection plasmid conferring puromycin resistance (pBSpacDp: parental C3H10T½ cells) or G418-resistance (pAG60: BMP2-expressing C3H10T½ cells). Individual clones were picked, propagated, and tested for recombinant expression of TAK1-variants by RT-PCR using a vector-specific and a gene-specific primer. Control cell lines (empty to expression vector) were established at the same time. Cells were plated at a density of 5,000 cells/cm^2. After reaching confluence (arbitrarily termed day 0) ascorbic acid (50 microgram/milliliter (μg/ml)) and b-glycerophosphate (10 millimolar (mM)) were added.
as §2
Osteoblast formation was evaluated as a measure of TAK1 influence on osteo-/chondrogenic differentiation potential. C3H10T½-BMP2 cells co-expressing TAK1 and its molecular variants were assessed histologically for alkaline phosphatase (ALP) activity (FIG. 8C), which is indicative of osteoblast differentiation.

T1 sequence (Q15797 whole entry): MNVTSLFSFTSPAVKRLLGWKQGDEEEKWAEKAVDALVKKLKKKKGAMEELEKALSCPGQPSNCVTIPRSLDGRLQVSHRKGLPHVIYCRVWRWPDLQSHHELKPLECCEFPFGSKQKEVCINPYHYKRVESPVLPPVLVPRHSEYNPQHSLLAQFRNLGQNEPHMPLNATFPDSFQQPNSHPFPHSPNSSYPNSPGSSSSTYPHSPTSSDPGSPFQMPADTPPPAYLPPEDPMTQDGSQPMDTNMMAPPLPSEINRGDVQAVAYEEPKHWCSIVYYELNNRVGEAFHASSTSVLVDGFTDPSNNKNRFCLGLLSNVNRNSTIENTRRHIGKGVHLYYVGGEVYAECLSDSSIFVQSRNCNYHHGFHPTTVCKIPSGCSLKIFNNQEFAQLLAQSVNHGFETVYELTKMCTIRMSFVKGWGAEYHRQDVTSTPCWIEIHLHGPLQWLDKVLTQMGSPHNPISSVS
T1 sequence (Q13485 whole entry): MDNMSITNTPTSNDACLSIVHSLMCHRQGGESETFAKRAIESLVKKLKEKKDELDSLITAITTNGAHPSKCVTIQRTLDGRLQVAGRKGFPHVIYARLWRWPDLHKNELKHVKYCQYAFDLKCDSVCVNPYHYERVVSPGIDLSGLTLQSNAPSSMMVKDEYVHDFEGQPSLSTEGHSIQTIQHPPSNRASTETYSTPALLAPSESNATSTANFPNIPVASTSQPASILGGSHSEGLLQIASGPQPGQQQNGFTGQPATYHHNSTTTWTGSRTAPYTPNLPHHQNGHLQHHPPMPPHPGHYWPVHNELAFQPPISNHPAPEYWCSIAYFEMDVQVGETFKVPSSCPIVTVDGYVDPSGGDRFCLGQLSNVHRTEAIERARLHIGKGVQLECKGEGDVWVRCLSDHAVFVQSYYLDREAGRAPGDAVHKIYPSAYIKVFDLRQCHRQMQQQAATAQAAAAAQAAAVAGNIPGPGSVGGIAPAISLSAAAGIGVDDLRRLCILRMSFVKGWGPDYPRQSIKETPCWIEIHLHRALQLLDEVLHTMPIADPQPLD

As to `[NH2][Pt]([NH2])([Cl])[Cl]` [CDDP, cisplatin], in the experiment on C3H10T½-BMP2 cells [1], the cell cycle effect entry was “arrested maturation in the G2-M phase” and the “apoptosis (subG0-G1 peak)” value was “did not cause measurable apoptosis”.
On to `COc1cc([C@@H]2c3cc4c(cc3[C@@H](O[C@@H]3O[C@@H]5CO[C@@H](C)O[C@H]5[C@H](O)[C@H]3O)[C@H]3COC(=O)[C@H]23)OCO4)cc(OC)c1O` [etoposide], for which the “apoptosis (subG0-G1 peak)” value in the experiment with C3H10T½-BMP2 cells [1] was “induced a significant subG0-G1 peak”.

B1: TAKDN: TAK1 Δ1-300 N-terminal deletion mutant (protein)
chain: PCQYSDEGQSNSATSTGSFMDIASTNTSNKSDTNMEQVPATNDTIKRLESKLLKNQAKQQSESGRLSLGASRGSSVESLPPTSEGKRMSADMSEIEARIVATAAYSKPKRGHRKTASFGNILDVPEIVISGNGQPRRRSIQDLTVTGTEPGQVSSRSSSPSVRMITTSGPTSEKPARSHPWTPDDSTDTNGSDNSIPMAYLTLDHQLQPLAPCPNSKESMAVFEQHCKMAQEYMKVQTEIALLLQRKQELVAELDQDEKDQQNTSRLVQEHKKLLDENKSLSTYYQQCKKQLEVIRSQQQKRQGTS
modifications: left off: small tags and cut ends
notes: TAK1 Δ1-300 N-terminal deletion mutant
B1: the “binding of TAK1 variant to SMAD proteins (co-immunoprecipitation)” value with SMAD proteins is “unable to bind significantly”.

B2: TAK1wt: wild-type murine TAK1 (long splice form) cloned from kidney, expressed from plasmid in transfected cells (protein)
chain: MSTASAASSSSSSSASEMIEAPSQVLNFEEIDYKEIEVEEVVGRGAFGVVCKAKWRAKDVAIKQIESESERKAFIVELRQLSRVNHPNIVKLYGACLNPVCLVMEYAEGGSLYNVLHGAEPLPYYTAAHAMSWCLQCSQGVAYLHSMQPKALIHRDLKPPNLLLVAGGTVLKICDFGTACDIQTHMTNNKGSAAWMAPEVFEGSNYSEKCDVFSWGIILWEVITRRKPFDEIGGPAFRIMWAVHNGTRPPLIKNLPKPIESLMTRCWSKDPSQRPSMEEIVKIMTHLMRYFPGADEPLQYPCQYSDEGQSNSATSTGSFMDIASTNTSNKSDTNMEQVPATNDTIKRLESKLLKNQAKQQSESGRLSLGASRGSSVESLPPTSEGKRMSADMSEIEARIVATAAYSKPKRGHRKTASFGNILDVPEIVISGNGQPRRRSIQDLTVTGTEPGQVSSRSSSPSVRMITTSGPTSEKPARSHPWTPDDSTDTNGSDNSIPMAYLTLDHQLQPLAPCPNSKESMAVFEQHCKMAQEYMKVQTEIALLLQRKQELVAELDQDEKDQQNTSRLVQEHKKLLDENKSLSTYYQQCKKQLEVIRSQQQKRQGTS
modifications: left off: small tags and cut ends
notes: wild-type murine TAK1 (long splice form) cloned from kidney, expressed from plasmid in transfected cells
For the molecule B2, the “maximum reduction of SMAD1 transcription (CAT reporter)” value in experiment [2] is given as 30%. Also, the “apoptosis (subG0-G1 peak)” value in the experiment with C3H10T½-BMP2 cells [1] is recorded as “did not induce apoptosis”. For the same molecule, the “SMAD1:SMAD4 interaction” value with SMAD1:SMAD4 interaction is recorded as “enhanced”. Further, the “expression of osteogenic marker genes (osteocalcin, PTH/PTHrP receptor)” value with C3H10T½-BMP2 cells [3] was “down-regulated expression of osteogenic genes”. Also, the “biological activity as evidenced by p38 MAPK and JNK phosphorylation” value in experiment [4] was “biologically active”. The “growth phenotype of C3H10T½-BMP2 cells expressing the TAK1 variant” value with C3H10T½-BMP2 cells [5] (after confluence) was “C3H10T½ wild-type phenotype”. Besides, the “osteoblast-like cell formation / ALP activity” value with C3H10T½-BMP2 cells [5] (compared to C3H10T½-BMP2 cells, 10 days post-confluence) was “interfered with osteoblast-like cell formation”. Further, the “binding of TAK1 variant to SMAD proteins (co-immunoprecipitation)” value in the experiment on SMAD proteins is “able to interact”.
